# Data: the nanobody polyreactivity screen of Harvey et al. (2022)
# Experiment: yeast display, Sf9 membrane polyspecificity reagent, FACS + sequencing; frameworks hold sequencing errors
# Outline: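 Sorting gates, low and high (top ~1%), were placed on anti-HA fluorescence to track expression and on streptavidin fluorescence to track reagent binding. A clone's polyreactivity label is taken from the gate it came out of. The reagent was 10% biotinylated, detergent-solubilized Sf9 membrane, applied for 1 hour at 4 °C to galactose-induced yeast display cells.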
row,Sequence,polyreactivity (PSR sort gate)
1,QVQLVESGGGLVQAGGSLRLSCAASGRTFKPNAMGWYRQAPGKERELVASINDVGSTNYADSVKGRFTISRDNAKNTVYLQMNSLKPEDTAVYYCAADPYWYPYYGYYILYDYWGQGTHVTVSS,low polyreactivity
2,QVQLVESGGGLVQAGGSLRLSCAASGRTFKRNAMGWYRQAPGKERELVAGISTGGSTNYADSVKGRFTISRDNAKNTVYLQMNSLKPEDTAVYYCAARYRTDWTPGYHVGYYYWGQGTQVTVSS,high polyreactivity
3,QVQLVESGGGLVQAGGSLRLSCAASGRTFKRNAMGWYRQAPGKERELVASISWRGGSTYYADSVKGRFTISRDNAKNTVFLQMKSLKPEDTAVYYCAAQYPVWRRLYRTWLVAEVDYWGQGTQVTVSS,low polyreactivity
4,QVQLVESGGGLVQAGGSLRLSCAASGRTFKRYAMGWYRQAPGKERELVAAITFSGGSTYYADSVKGRFTISRDNAKNTVYLQMNSLKPADTAVYYCAAVGEHYPWDYYWGQGTQVTVSS,high polyreactivity
5,QVQLVESGGGLVQAGGSLRLSCAASGRTFKRYAMGWYRQAPGKERELVARITYSGARTYYADSVKGRFTISRDNAKNTVYLQMNSLKPEDTAVYYCAAQQYWTSQYFRSATFDYWGQGTQVTVSS,high polyreactivity
6,QVQLVESGGGLVQAGGSLRLSCAASGRTFKRYAMGWYRQAPGNERELVAAIRRGGITNYADSVKGRFTISRDNAKNTVYLQMNSLKPEDTAVYYCAKDGVTYPYSYEYDYWGLGTQVTVSS,low polyreactivity
7,QVQLVESGGGLVQAGGSLRLSCAASGRTFKVYAMGWYRQAPGKERELVASINRGSSTYADSVKGRFTISRDNAKNTVYLQMNSLKPEDTAVYYCAARWWRQSRYYYWGQGTQVTVSS,high polyreactivity
8,QVQLVESGGGLVQAGGSLRLSCAASGRTFKYKAMGWYRQAPGKERELVDAISSDDSTNYADSVKGRFTISRDKAQNTVYLQMNSLKPEDTAVYYCAARYGYSKWPDRVQAYKHDYWGQGTQVTVSS,low polyreactivity
9,QVQLVESGGGLVQAGGSLRLSCAASGRTFKYNAIGWYRQAPGKERELVAVISRSTGRTYYADSVKGRFTISRDNAKNTVYLQMNSLKPEDTAVYYCNRVSRQYYYQRGFEYDYWGQGTQVTVSS,high polyreactivity
10,QVQLVESGGGLVQAGGSLRLSCAASGRTFKYNAMGWYRQAPGKERELVAAITSSGGRTYYADSVKGRFTISRDNAKNTVYLQMNSLKPEDTAVYYCAARGYPSDYKYEYNYWGQGTQVTVSS,high polyreactivity
11,QVQLVESGGGLVQAGGSLRLSCAASGRTFKYNAMGWYRQAPGKRKELVAAISSGGSTYYADSVKGRFTISRDNAKNTVYLQMNSLKPEDTAVYYCAVRNTKSYWFGYWGQGTQVTVSS,high polyreactivity
12,QVQLVESGGGLVQAGGSLRLSCAASGRTFKYYALGWYRQAPGKERELVAAISNGGRTNYADSVKGRFTISRDNAKNTVYLQMNSLKPEDTAFYYCAKRTFYFSDYDYWGQGTQVTVSS,high polyreactivity
13,QVQLVESGGGLVQAGGSLRLSCAASGRTFKYYALGWYRQAPGKERELVAAISTRGGRTYADSVKGRFTISRDNAKNTVYLQMNSLKPEDTAVYYCARDSNVGHHGFDYWGQGTQVTVSS,low polyreactivity
14,QVQLVESGGGLVQAGGSLRLSCAASGRTFKYYAMGWYRQAPGKERELVAAISRRGGRTYYADSVKGRFTISRDNAKNTVYLQMNSLKPEDTAVYYCAAVFETGAGGFYYTLQYDSWGQGTQVTVSS,high polyreactivity
15,QVQLVESGGGLVQAGGSLRLSCAASGRTFKYYAMGWYRQAPGKERELVAAISRSGGTTYYADSVKGRFTISRDNAKNTVYLQMNSLKPEDTAVYYCAARCATRSRYDYWGQGTQVTVSS,high polyreactivity
16,QVQLVESGGGLVQAGGSLRLSCAASGRTFKYYAMGWYRQAPGKERELVAAISSGSSTYYADSVKGRFTISRDNAKNTVYLQMNSLKPEDTAVYYCNAVYKLSYLLSGTSEYYTYDYWGQGTQVTVSS,high polyreactivity
17,QVQLVESGGGLVQAGGSLRLSCAASGRTFKYYAMGWYRQAPGKERELVAAISYNGGSTFYADSVKGRFTFSRDNAKNTVYLQMNSLKPEDTAVYYCAAGPRGTGKYYWGQGTQVTVSS,high polyreactivity
18,QVQLVESGGGLVQAGGSLRLSCAASGRTFKYYAMGWYRQAPGKERELVASISNGGNTNYADSVKGRFTISRDNAKNTVYLQMNSLKPEDTAVYYCAAGYVVATRYDYWGQGTQVTVSS,high polyreactivity
19,QVQLVESGGGLVQAGGSLRLSCAASGRTFKYYAMGWYRQAPGKERELVASITRGSSTNYADSVKGRFTISRDNAKNTVYLQMNSLKPEDTAVYYCATGPGRALPRPTSAYYYWGQGTQVTVSS,high polyreactivity
20,QVQLVESGGGLVQAGGSLRLSCAASGRTFKYYTMGWYRQAPGKERELVAAITSDGSTNYADSVKGRFTISRDNAKNTVYLQMNSLKPEDTAVYYCAAEIRWVFLSYEYWGQGTQVTVSS,high polyreactivity
21,QVQLVESGGGLVQAGGSLRLSCAASGRTFLAYAMGWYRQAPGKERELVAAISKSGGRTYYADSVKGRFTISRDNAKNTVYLQMNSLKPEDTAVYYCAADKQAYVTDDYWGQGTQVTVSS,high polyreactivity
22,QVQLVESGGGLVQAGGSLRLSCAASGRTFLGYAMGWYRQAPGKERELVAAITSGTRTYADSVKGRFTISRDNAKYTVYLQMNSLKPEDTAVYYCAALRWQYRLYSYSFRSGRFDYWGQGTQVTVSS,low polyreactivity

row,Sequence,polyreactivity (PSR sort gate)
1,QVQLVESGGGLVQAGGSLRLSCAASGRTFLGYAMGWYRQAPGKERELVAAITWRGGITYYADSVKGRFTISRDNAKNTVYLQMNSLKPEDTAVYYCARDYGQYGWYRYGRTFDNWGQGTQVTVSS,high polyreactivity
2,QVQLVESGGGLVQAGGSLRLSCAASGRTFLHNAMGWYRQAPGKERELVAAISSRGGSTYYADSVKGRFTISRDNAKNTVYLQMNSLKPEDTAVYYCAAYIYGTYYYWGQGTQVTVSS,high polyreactivity
3,QVQLVESGGGLVQAGGSLRLSCAASGRTFLHYAMGWYRPAPGKERELVAAMSWSGGSTNYADSVKGRFTISRDNAKNTVYLQMNSLKPEDTAVYYCAADFYWVIYSTVEYGYWGQGTQVTVSS,low polyreactivity
4,QVQLVESGGGLVQAGGSLRLSCAASGRTFLINAMGWYRQAPGKERELVAAITQSGGSTYYADSVKGRFTISRDNAKNTVYLQMNSLKPEDTAVYYCAADVPGVYPYDYWGQGTQVTVSS,low polyreactivity
5,QVQLVESGGGLVQAGGSLRLSCAASGRTFLIYAMGWYRQAPRKEREFVAAIRGRGGSTYYADSVKGRFTISRDNAKNTVYLQMNSLKPEDTAVYYCAATFPGRSFRIRGYGYDYWGQGTQVTVSS,high polyreactivity
6,QVQLVESGGGLVQAGGSLRLSCAASGRTFLNYAMGWYRQAPGKEREFVAAITWRVGTTYYADSVKGRFTISRDNAKNTVYLQMNSLKPEDTAVYYCAARRSVGGYGYWGQGTQVTVSS,high polyreactivity
7,QVQLVESGGGLVQAGGSLRLSCAASGRTFLPNAMGWYRQAPGKDRELVAVITSGGSTNYADSVKGRFTISRDNAKNTVYLQMNSLKPEDTAVYYCAARRWSSSQGHWGKSAGYGYWGQGTQVTVSS,low polyreactivity
8,QVQLVESGGGLVQAGGSLRLSCAASGRTFLPNAMGWYRQAPGKERELVAVITSGGSTNYADSVKGRFTISRDNAKNTVYLQMKSLKPEDTAVYYCAARRWSSSQGHWGKSAGYGYWGQGTQVTVSS,low polyreactivity
9,QVQLVESGGGLVQAGGSLRLSCAASGRTFLPNAMGWYRQAPGKERELVAVITSGGSTNYADSVKGRFTISRDNAKNTVYLQMNSLKPEDTAVYYCAADWWRVEMEYWGQGTQVTVSS,low polyreactivity
10,QVQLVESGGGLVQAGGSLRLSCAASGRTFLPNAMGWYRQAPGKERELVAVITSGGSTNYADSVKGRFTISRDNAKNTVYLQMNSLKPEDTAVYYCAARRWSSSQGHWGKSAGYGYLGQGTQVTVSS,low polyreactivity
11,QVQLVESGGGLVQAGGSLRLSCAASGRTFLPNAMGWYRQAPGKERELVAVITSGGSTNYADSVKGRFTISRDNAKNTVYLQMNSLKPEDTAVYYCAARRWSSSQGHWGKSAGYGYWGQGTQVTVSS,low polyreactivity
12,QVQLVESGGGLVQAGGSLRLSCAASGRTFLPYAMGWYRQAPGKEWELVAAIDSSGGSTYYADSVKGRFTISRDNAKNTVYLQMNSLKPEDTAVYYCAADLYSSYYLYDSWGQGTQVTVSS,low polyreactivity
13,QVQLVESGGGLVQAGGSLRLSCAASGRTFLRNTMGWYRQAPGKERELVAAISRSGATTYYADSVKGRFTISRDNAKNTVYLQMNSLKPADTAVYYCAALGQGRTSATSFVDYEYWGQGTQVTVSS,high polyreactivity
14,QVQLVESGGGLVQAGGSLRLSCAASGRTFLRYAMGWYRQAPGKERELVAAISGSGGSTYYADSVKGRFTISRDNAKNTVYLQMNSLKPEDTAVYYCATRFWVSFKAREYWGQGTQVTVSS,high polyreactivity
15,QVQLVESGGGLVQAGGSLRLSCAASGRTFLSYAMGWSRQAPVTERELVATITRRGGSTYYADSVKGRFTISRDNAKNTVYLQMNSLKPEDTAVSYCAAYYRQYSYSEFGYWGQGTQVTVSS,high polyreactivity
16,QVQLVESGGGLVQAGGSLRLSCAASGRTFLSYMGWYRQAPGKERELVAISRYGTSTYYADSVKGRFTISRDNAKNTVYLQMNSLKPEDTAVFYCAAEVLRDGWWGYYYWGQGTQVTVSS,high polyreactivity
17,QVQLVESGGGLVQAGGSLRLSCAASGRTFLTNAMGWYRQAPGKERELVAAITSSGGNTYYADSVKGRFTISRDNAKNTVYLQMNSLKPEDTAVYYCAAPGYVWYGGRWVYRYYYWGQGTQVTVSS,high polyreactivity
18,QVQLVESGGGLVQAGGSLRLSCAASGRTFLTNTMGWYRQAPGKERELVAAISSGGSTKYADSVKGRFTISRDNAKNTVYLQMNSLKPEDTAVYYCAATGWRYGYKYYYWGQGTQVNVSS,high polyreactivity
19,QVQLVESGGGLVQAGGSLRLSCAASGRTFLVFAMGWYRQAPGKERELVAAITRDDNTNYADSVKGRFTISRDNAKNTVYLQMNSLKPEDTAVDYCAADALVYRLGNYYFIFDYWGQGTEVTVSS,low polyreactivity
20,QVQLVESGGGLVQAGGSLRLSCAASGRTFLVNAMGWYRQAPGKEREFVAAITSRSSGSTYYADSVTGRFTISRDKAKNTVYFQLNSQKPEDTAVYYCAARGHLRYESDYWGQGTQVTVSS,high polyreactivity
21,QVQLVESGGGLVQAGGSLRLSCAASGRTFLVNAMGWYRQAPGKERELVAAITANGGNTYYADSVKGRFTISRDNAKNTVYLQMNSLKPEDTAVYYCAKLSHRGQSTGVDYWGQGTQVTVSS,low polyreactivity
